According to US7301069B2, “Methods of protecting plants from pathogenic fungi and nematodes” (Pioneer Hi-Bred International, Inc., priority 2004, dated 2007):

B1: Kis10: Kistrin polypeptide of SEQ ID NO: 10 from Petunia x hybrida, predicted mature region, recombinantly expressed in E. coli as cleaved MBP fusion (protein)
chain: GSLKPSQCLPQCTRRCSQTQYHNACMLFCQKCCNKCLCVPPGFYGNKGVCPCYNNWKTKEGGPKCP
modifications: Petunia x hybrida; PEPTIDE (0)...(0) Kis10 mature peptide
B2: Kis2: Kistrin polypeptide of SEQ ID NO: 1 from Arabidopsis thaliana, predicted mature region, recombinantly expressed in E. coli as cleaved MBP fusion (protein, listed as Arabidopsis thaliana)
chain: GKLKPQQCNSKCSFRCSATSHKKPCMFFCLKCCKKCLCVPPGTFGNKQTCPCYNNWKTKEGRPKCP
modifications: PEPTIDE (0)...(0) Kis2 mature peptide
B3: Kis6: Kistrin polypeptide of SEQ ID NO: 7 from Arabidopsis thaliana, predicted mature region, recombinantly expressed in E. coli as cleaved MBP fusion (protein, listed as Arabidopsis thaliana)
chain: GYAKKIDCGSACVARCRLSRRPRLCHRACGTCCYRCNCVPPGTYGNYDKCQCYASLTTHGGRRKCP
modifications: PEPTIDE (0)...(0) Kis6 mature peptide
B4: Kis5: Kistrin polypeptide of SEQ ID NO: 4 from Picea mariana (black spruce), predicted mature region, recombinantly expressed in E. coli as cleaved MBP fusion (protein, listed as Picea mariana)
chain: GSLRPSECGQRCSYRCSATSHKKPCMFFCQKCCAKCLCVPPGTFGNKQVCPCYNNWKTQQGGPKCP
modifications: PEPTIDE (0)...(0) Kis5 mature peptide

Each molecule was assayed on Alternaria brassicicola (assay: Anti-fungal bioassay (primary screening)). Details: protease-cleaved fusion protein samples, scored after 18 to 48 hours.
Assay type: cell-based
Design: key: 0 = no effect; 1 = partial growth inhibition; 2 = strong inhibition
Experimental: (§1) The same polypeptides of Example 1 which were recombinantly expressed in E. Coli were also screened in an anti-fungal bioassay against five selected fungal pathogens.
(§2) All fungal strains were grown and maintained on potato dextrose agar (PDA) plates, in a 30° C. incubator. These plates were kept in smaller secondary containers (per fungal strain), with moist paper towels to maintain high humidity. Spores were harvested in a quarter strength of potato dextrose broth (PDB) after about 2 weeks of growth, counted using a hemacytometer, and subsequently stored in small aliquots at −80° C.
(§3) The frozen spores were diluted to the working concentration (determined empirically for each fungal strain), in a quarter strength of PDB, and 50 μL (per well) were added to sterile, flat-bottomed 96-well assay plates. The assay plates were incubated in the humid boxes at room temperature for 5-7 hours to allow the spores to germinate. Serial dilutions of purified, protease-cleaved fusion protein samples were then added to the assay plates, in 50 μL volumes, for a final assay volume of 100 μL per well. The assay plates were allowed to incubate overnight, in a humid box, at 30° C. Antifungal activity was scored after 18 to 48 hours, depending upon the strain of fungus.

Row | Molecule | Antifungal score, Alternaria brassicicola
1 | B1 | 0
2 | B2 | 0
3 | B3 | 0
4 | B4 | 0

Each molecule was assayed on Verticillium dahliae (assay: Anti-fungal bioassay (primary screening)). Details: protease-cleaved fusion protein samples, scored after 18 to 48 hours.
Assay type: cell-based
Design: key: 0 = no effect; 1 = partial growth inhibition; 2 = strong inhibition
Experimental: as §1, §2, §3

Row | Molecule | Antifungal score, Verticillium dahliae
5 | B1 | 0
6 | B2 | 0
7 | B3 | 1
8 | B4 | 2

These molecules were tested on Fusarium verticillioides (assay: Anti-fungal bioassay (primary screening)). Details: protease-cleaved fusion protein samples, scored after 18 to 48 hours.
Assay type: cell-based
Design: key: 0 = no effect; 1 = partial growth inhibition; 2 = strong inhibition
Experimental: as §1, §2, §3

Row | Molecule | Antifungal score, Fusarium verticillioides
9 | B1 | 0
10 | B2 | 0
11 | B3 | 0
12 | B4 | 0

The molecules below were run on Botrytis cinerea (assay: Anti-fungal bioassay (primary screening)). Details: protease-cleaved fusion protein samples, scored after 18 to 48 hours.
Assay type: cell-based
Design: key: 0 = no effect; 1 = partial growth inhibition; 2 = strong inhibition
Experimental: as §1, §2, §3

Row | Molecule | Antifungal score, Botrytis cinerea
13 | B1 | 0
14 | B2 | 0
15 | B3 | 0
16 | B4 | 0

What follows are molecules tested on Fusarium oxysporum (assay: Anti-fungal bioassay (primary screening)). Details: protease-cleaved fusion protein samples, scored after 18 to 48 hours.
Assay type: cell-based
Design: key: 0 = no effect; 1 = partial growth inhibition; 2 = strong inhibition
Experimental: as §1, §2, §3

Row | Molecule | Antifungal score, Fusarium oxysporum
17 | B1 | 0
18 | B2 | 0
19 | B3 | 0
20 | B4 | 1

What follows are molecules tested on C. elegans (assay: C. elegans feeding bioassay). Details: cleaved peptides; concentrations based on Bradford (BSA standard), assume 100% cleavage of the MBP-Kistrin fusion.
Assay type: in vivo, Caenorhabditis elegans
Experimental: A number of polypeptides were recombinantly expressed in E. coli and then screened in a nematode bioassay.
C. elegans feeding bioassays. Screening was performed in high throughput using E. coli expressed material, corresponding to the predicted mature regions of various small peptides. Expression of biologically functional polypeptides involved producing a fusion protein that included a maltose-binding protein (MBP) and a polypeptide of interest and subsequently cleaving the fusion protein at a protease recognition sequence to release the peptide of interest. DNA encoding the polypeptide of interest was fused to the C-terminus of the MelE gene in the E. coli expression vector pMAL (New England Biolabs; see, Guan et al., Gene 67:21-30 (1987); and Maina et al., Gene 74:365-73 (1988)). Sequences encoding the cleavage site of proteases Factor Xa or Genenase I were incorporated between the genes of MBP and the polypeptide of interest. A histidine tag was also added to the N-terminus of MBP.
The constructed plasmid vector was transformed into cells of E. coli XL-1 Blue and transformants were grown in 2YT medium containing 50 μg/mL carbenicillin to a cell density of OD600=0.6-0.9. Expression of the fusion protein was induced by addition of IPTG into the culture to a final concentration of 1 mM. Cells were grown for 4-16 hours to saturation before harvesting. Cells were harvested by centrifugation and then lysed with B-PER reagent (Pierce Chemicals, Rockford, Ill.) to obtain the fraction of soluble proteins. The fusion protein was purified from the cell lysate supernatant utilizing the histidine tag by incubating the cell lysate with Ni-NTA agarose resins for 20 minutes to 1 hour. The resins were washed with Tris buffer to remove all unbound proteins. Two-mercaptoethanol (10 mM) was included in the lysis and washing buffers to allow partial refolding of the proteins. Elution of the bound fusion protein was performed with buffer containing 20-40 mM […]. To release the polypeptide of interest, the purified fusion protein was incubated with Factor Xa or Genease I (RT, 8-24 hours). The cleaved protein sample was then used in nematode activity assays.
Hit characterization. Approximate IC50's (in μg/mL) for 4 hits determined from C. elegans bioassay using cleaved peptides. Concentrations were determined based on Bradford (BSA standard) and assume 100% cleavage of the MBP-Kistrin fusion.

Row | Molecule | Approximate IC50 from C. elegans bioassay [µg/mL]
21 | B1 | 30
22 | B2 | 15
23 | B3 | 150
24 | B4 | 75
